Measured values as given in the supplement of paper PMC10567573.

B1: P2RY14 (parent)
chain: KKIFKSHLKSSRNSTSVKKKSSRN
B2: SMTNL2 (parent)
chain: ETAAGKGKGEARARLKRSQSFGVA

Variants of: B1
Assay: protein stability index of a GFP-peptide fusion (GPS, HEK-293T) (PSI 1-6); higher = more stable
Conditions: c terminus: a fixed tail appended
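Note: lentivirally expressed fusions sorted by FACS into six bins by GFP to DsRed ratio, PSI derived from sequencing read proportions per bin multiplied by bin number.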

Protein stability index: each site, then its substitutions
S22: A 4.01; C 4.07; D 4; E 4.06; F 2.92; G 4.32; H 4.64; I 5.05; K 4.43; L 3.48; M 4.19; N 4.2; P 4.21; Q 4.49; R 4.13; T 4.19; V 4.33; W 3.33; Y 3.56
R23: A 4.05; C 3.91; D 4.1; E 4.18; F 3.42; G 3.94; H 3.57; I 3.67; K 4.2; L 3.51; M 3.76; N 4.25; P 3.73; Q 4.38; S 4.28; T 3.88; V 4.1; W 3.51; Y 4.07
N24: A 4.14; C 3.55; D 4.29; E 3.91; F 3.61; G 4.57; H 4.38; I 3.61; K 3.81; L 4.12; M 3.3; P 3.91; Q 4.23; R 4.16; S 4.07; T 4.28; V 4.11; W 3.6; Y 3.46

Variants of: B2
Assay: as above
Conditions: c terminus: a fixed tail appended

Protein stability index of substitutions, site by site:
E1: A 3.91; C 4.05; D 4.49; F 3.21; G 4.54; H 3.94; I 3.58; K 3.82; L 4.18; M 3.88; N 4.35; P 4.09; Q 4.03; R 3.82; S 4.48; T 3.72; V 3.33; W 3.63; Y 3
T2: A 4.74; C 4.53; D 5.39; E 4.83; F 4.46; G 4.71; H 4.46; I 4.11; K 4.58; L 4.36; M 4.65; N 4.86; P 4.92; Q 4.55; S 4.66; V 4.79; W 3.07; Y 3.83
A3: C 3.86; D 4.72; E 4.94; F 4.28; G 4.54; H 4.31; I 4.13; K 4.38; L 4.8; M 4.5; N 4.74; P 4.88; Q 4.56; R 4.1; S 4.28; T 4.65; V 4.33; W 4.27; Y 3.74
A4: C 4.46; E 5.09; G 4.29; H 4.3; I 4.24; K 4.81; L 3.81; M 4.71; N 4.13; P 4.54; Q 4.78; R 4.46; S 4.02; T 4.67; V 3.99; W 3.98; Y 4.77
G5: A 4.94; C 4.41; D 3.84; E 4.79; F 4.04; H 4.77; I 3.91; K 4.8; L 4.56; M 3.93; N 4.58; P 4.52; Q 4.39; R 4.42; S 4.24; T 4.38; V 4.34; W 4.06; Y 4.07
K6: A 4.62; C 2.43; D 4.85; E 5.05; F 4.56; G 3.58; H 4.53; I 4.54; L 4.04; M 3.87; N 4.32; P 4.59; Q 3.41; R 4.39; S 4.62; T 4.78; V 4.23; W 3.79; Y 3.9
G7: A 4.28; C 3.48; D 4.75; E 4.71; F 3.87; H 4.18; I 4.17; K 4.62; L 4.26; M 3.73; N 4.02; P 4.08; Q 4.46; R 4.11; S 4.22; T 4.48; V 4.01; W 3.03; Y 4.2
K8: A 5.13; C 4.17; D 5.01; E 4.89; F 4.29; G 3.96; H 4.44; I 4.12; L 4; M 4.66; N 4.8; P 4.54; Q 5.13; R 4.38; S 4.43; T 4.08; V 4.62; W 3.87; Y 4.2
G9: A 4.12; C 4.21; D 4.53; E 4.96; F 4.12; H 4.58; I 4.37; K 4.21; L 3.6; M 3.95; N 4.56; P 4.43; Q 4.51; R 4.27; S 5.08; T 3.6; V 4.26; W 3.27; Y 4.42
E10: A 4.33; C 3.51; D 4.38; F 3.7; G 4.49; H 4.44; I 3.96; K 4.29; L 3.79; M 4.44; N 4.21; P 4.27; Q 3.9; R 4.53; S 4.46; T 4.38; V 4.27; W 3.4; Y 3.35
A11: C 3.96; D 4.8; E 4.69; F 3.71; G 4.61; H 4.49; I 3.69; K 4.74; L 4.5; M 4.19; N 4.56; P 4.46; Q 4.19; R 4.73; S 4.58; T 4.62; V 4.02; W 3.65; Y 4.06
R12: A 4.76; C 4.38; D 4.79; E 5.03; F 3.9; G 5.1; H 4.45; I 3.95; K 4.88; L 4.24; M 3.94; N 3.82; P 4.67; Q 4.61; S 4.92; T 3.76; V 4.83; W 3.14; Y 4.28
A13: C 4.38; D 4.4; E 4.95; F 3.9; G 4.78; H 4.83; I 4.54; K 4.86; L 4.11; M 4.05; N 4.55; P 4.7; Q 4.38; R 4.05; S 4.67; T 4.61; V 3.82; W 3.67; Y 4.3
R14: A 3.79; C 4.53; D 4.82; E 4.88; F 4.18; G 4.9; H 4.69; I 4.27; K 4.85; L 4.29; M 4.27; N 4.68; P 5.19; Q 4.66; S 4.41; T 4.4; V 4.25; W 4.03; Y 4.09
L15: A 4.46; C 4.24; D 4.03; E 4.7; F 3.69; G 4.49; H 4.44; I 4.51; K 4.77; M 3.95; N 4.89; P 5.01; Q 4.91; R 4.49
